Laboratory results published in PMC3158819 (Journal of molecular biology, 2011).
Blank lines part the entries; values can stand above or below the binder they belong to.

What was measured:
[1] = target: T1, CASK CaMK domain (residues M1-A310) (human, UniProt O14936 1-310); test: SPR
T1 sequence (looked up): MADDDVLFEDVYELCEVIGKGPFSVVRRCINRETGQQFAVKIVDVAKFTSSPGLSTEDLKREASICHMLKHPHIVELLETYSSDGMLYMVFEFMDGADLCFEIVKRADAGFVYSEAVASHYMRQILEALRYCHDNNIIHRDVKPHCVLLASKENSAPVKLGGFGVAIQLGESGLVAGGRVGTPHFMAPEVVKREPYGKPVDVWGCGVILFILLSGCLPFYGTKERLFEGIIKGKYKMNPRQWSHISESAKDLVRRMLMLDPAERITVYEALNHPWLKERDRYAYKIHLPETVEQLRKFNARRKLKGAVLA

[2] = target: T1, CASK CaMK domain (residues M1-A310); test: SEC

Kd [1]: 7.5 ± 0.5 µM
B1: Caskin1 CID (residues I375 to G471) (domain or fragment, UniProt Q8WXD9 375-471, looked up)
chain: IWVLRKPFAGGDRSGSISGMAGGRGSGGHALHAGSEGVKLLATVLSQKSVSESGPGDSPAKPPEGSAGVARSQPPVAHAGQVYGEQPPKKLEPASEG

binding result [2]: binds
B2: Caskin1 CID-SAMs (residues I375 to L605), wild type (domain or fragment)
chain: not shown
